From the nanobody polyreactivity screen of Harvey et al. (2022) come the findings set out here.

A short description of the series: yeast display, Sf9 membrane polyspecificity reagent, FACS + sequencing; frameworks hold sequencing errors. A digest of the protocol:
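Sorting gates, low and high (top ~1%), were placed on anti-HA fluorescence to track expression and on streptavidin fluorescence to track reagent binding. A clone's polyreactivity label is taken from the gate it came out of. The reagent was 10% biotinylated, detergent-solubilized Sf9 membrane, applied for 1 hour at 4 °C to galactose-induced yeast display cells.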
For “QVQRVESAGGLVQAGGSLRLSCAASGSTFLYNAMGWYRQAPGKERELVAAISWSGGSTYYADSVKGRFTISRDNAKNTVYLQMNSLKPEDTAVYYCAKPRSWGYNWGQGTQVTVSS”, the “polyreactivity (PSR sort gate)” value is listed as “high polyreactivity”. As for “QVQRVESGGALVQAGGSLRLSCAASGRIFGGYAMGWYRQAPGKERELVAAISSRGGSTYYADSVKGRFTISRDNAKNTVYLQMNSLKPEDTAVYYCAADGRVKGWGQGTQVTVSS”, the entry is “high polyreactivity”. For “QVQRVESGGALVQAGGSLRLSCAASGSTFYAYAMGWYRPAPGKERELVAAITYRDGRTYYADSVKGRFTISRDNAKNTVYLQMNRLKQEDTAVYYCARKTGFTVRRYDYWGHGTQVTVSS” the value was “high polyreactivity”; for “QVQRVESGGGFVQAGGSLRLSSAASGFTFGAYAMGWYRQAPGKEMELVASISWSGGSTYYADSVKGRFTISRVNAKNTVYLQMNSLKPEDTAVYYCNKDFVYPDDDGLFDYWGQGTQVTVSS”, “low polyreactivity”; for “QVQRVESGGGLFQAGGSLRLSCAASGITFRYYNMGWYRQAPGKERELVAAISSSGGSTYYADSVKGRFTISRDNAKNTVYLQMNSLKPEDTAVYYCAAESKYSTSSPRRDYWGQGTQVTVSS”, “high polyreactivity”.

As to “QVQRVESGGGLVKAGGRLRLSSAASGGTFKRYTMGWYRQAPGKETELVARIHYRTGSTYYADSVKGRFTISRDNAKNTVYLQMNSLKPEDTAVYYCAAREWYGFAFDYWGQGTQVTVSS”, the “polyreactivity (PSR sort gate)” value is “high polyreactivity”.

“QVQRVESGGGLVQAAGSLRLSCAASGRTFIYYAKGWYRHEPGKERELVAGISRNGGRTYYADSVKGRFTISRDNAKNTVYLQMNSLKPEDTAVYYCNAYPPSRHDYCGQGTQVTVSS”: the “polyreactivity (PSR sort gate)” value is “high polyreactivity”. As for “QVQRVESGGGLVQAGASLRLSCAASGSTFDPYAKGWYRQAPGKERELVAAISGRGGSTYYADSVKGRFTISRDNAKNTLYLQMNSLKPEDTADYYCNAEGEYRRDRYDYWGQGTQVTVSS”, the entry is “low polyreactivity”; as for “QVQRVESGGGLVQAGASLRLSCSASGRTFSRYAMGWYRQAPGKERELVAAIRGNSGNTYYADSVKGRFTISRDNAKNTVYLQMNSLKPEDTAVYYCAKPFNIWGQGTQVTVSS”, “high polyreactivity”; as for “QVQRVESGGGLVQAGGRLRLTCAASARIIRWYAMGWNRQAPGKERELVAAISGSGGSTYYADSVKGRFTISRDNAKNTVYLQMNSLKPEDTAVYYCAKDRDPVRAHDCWGQGTQVTVSS”, “high polyreactivity”. Regarding “QVQRVESGGGLVQAGGSLRLSCAASGFIFWRYAMGWYRQAPGKERELVATITSSGGTTHYADSVKGRFTISRDNAKNTVYLQMNSLKPEDTAVYYCAKALVVQYGRYTGHPYDYWGQGTQVTVSS”, the “polyreactivity (PSR sort gate)” value was “high polyreactivity”. As for “QVQRVESGGGLVQAGGSLRLSCAASGFTFESYAMGWYRQAHGKERELVAAITWDGGSTYYADSVKGRFTISRDNAKNTVYLQMNSLKPEDTAVYDCAADFGTISIDVYSWMDYWGQGTQVTGSS”, the “polyreactivity (PSR sort gate)” value is “low polyreactivity”. For “QVQRVESGGGLVQAGGSLRLSCAASGFTFRWYAMGWYRQAPGKEREMVAAISRSGASTYYADSVKGRFTISRDNAKNTVYLQMNSLKPEDTAVYYCAVLWHGRRPLYKLRTGPEYDYWGQGTQVTVSS” the value was “high polyreactivity”.

Consider “QVQRVESGGGLVQAGGSLRLSCAASGFTFVPYALGWYRPAPGQERELVAAISGSGGSTYYADSVKGRFTISRDNEKNTVYLQMNSLKPEDTAVYYCNADRRWAYYWGQGTQVTVSS”, for which the “polyreactivity (PSR sort gate)” value was “high polyreactivity”. For “QVQRVESGGGLVQAGGSLRLSCAASGIIFDRYAMGWYRPAPGKERELVAAISSSGGSTYYADSVKGRFTISRDNAKNTVYLQMISLKPEATAVYYCNARHRQWARGYWGQGTQVTVSS” the value was “high polyreactivity”; for “QVQRVESGGGLVQAGGSLRLSCAASGITFRGYAMGWYRQAPGKERELVAAINSRGGSTYYADSVKGRFTISRDNAKNTVYLQMNSLKPEDTAVYYCATRSFGRMDYWGQGTQVTVSS”, “high polyreactivity”. For “QVQRVESGGGLVQAGGSLRLSCAASGLIFVVYAMGWYRQAPGKERELVADISSGGRTSYADSVKGRFTISRDNAKNTVYLQMNSLKPEDTAVYYCNAYPVFNQYYGWRYDYWGQGTQVTVSS” the value was “low polyreactivity”; for “QVQRVESGGGLVQAGGSLRLSCAASGNTFWLNAMGWYRQAPGKERELVAAITYTDGSTYADSVKGRFTISRDNAKNTVYLQMNSLKPEDTAVYYCAARYQWDWRDYYYWGQGTQVTVSS”, “low polyreactivity”. For “QVQRVESGGGLVQAGGSLRLSCAASGRIFYFNAMGWYRQAPGKEWELVAVINSSGSTDYADSVKGRFTISRDNAKNTVYLQMNSLKPEDTAVYYCAAEVTPSGYGYWGQGTQVTVSS” the value was “low polyreactivity”; for “QVQRVESGGGLVQAGGSLRLSCAASGRILYWYAMGWYRQAPGKERELVAGIDWSGGSTYYADSVKGRFTISRDKAKTTVYLQMNSLKPEDTAVYYCNAAQNRGRGSHRGESTYYYSGQGTQVTVSS”, “low polyreactivity”; for “QVQRVESGGGLVQAGGSLRLSCAASGRTFYGYAMGWYRQAPGKDRELVASISWSTGSTHYADSVKGRFTISRVNAKNTVYVQMNSLKPEATAVYYCAAPFWRDSYVQIDYDYWGQGTQVTVSS”, “low polyreactivity”. With “QVQRVESGGGLVQAGGSLRLSCAASGRTFYLNAMGWYRQATGKERQLVAAINRGTRTYYADSVKGRFTISRDNAKNTVYLQMNSVKPEDTAVYYCAAVPRYYYSSSYTMDYWGQGTQVTVSS”, the “polyreactivity (PSR sort gate)” value is listed as “high polyreactivity”. Regarding “QVQRVESGGGLVQAGGSLRLSCAASGSIFFRNVMGWYRQAPGKERELVAAISSRGGSTYYADSVKGRFTISRDIAKNTVYLQMNSLKPEDTAVYYCATSHTPTYNYWGQGPQVTVSS”, the “polyreactivity (PSR sort gate)” value is “high polyreactivity”. For “QVQRVESGGGLVQAGGSLRLSCAASGSIFPSNTMGWYRQAPGKERELVAAISGSGTRTYYADSVKGRFTISRDNAKNTVYLQMNSLKPEDTAVYYCAADVDYWGQGTQVTVSS” the value was “low polyreactivity”; for “QVQRVESGGGLVQAGGSLRLSCAASGSIFSIYAMGWYRQAPGKETELVAAIDSGTSTTYADSVKGRFTISRDNAKNTVYLEMNSLKPEDTAVYYCAAALYSDVAAVATYGYYCGQGTQVTVSS”, “low polyreactivity”; for “QVQRVESGGGLVQAGGSLRLSCAASGSNFRVYVMGWYRQAPGKERELVARIRYRSGRTNYADSVKGRFTISRDNAKNTVYLQMNSLKPEDTAVYYCAARTPAYARTYGYWGQGTQVTVSS”, “high polyreactivity”.

For the sequence “QVQRVESGGGLVQAGGSLRLSCAASGSTFGNAMGWYRQAPGKERELVAAISSRGDRTYYADSVQGRFTISRDNAKNTVYLQMNSLKPEDTAVYYCAKDGYPNKYDYWGQGTQVTVSS”, the “polyreactivity (PSR sort gate)” value is listed as “high polyreactivity”. For “QVQRVESGGGLVQAGGSLRLSCAASGSTFWFNAMGWYRQAPGKERELVAAITYRGASTNYADSVKGRFTISRDNAKNTVYLQMNSLKPEDTAVYYCATRPTWRPVPDSDVSTYGYWGQGTQVTVSS” the value was “low polyreactivity”. As for “QVQRVESGGGLVQAGGSLRLSCAASGYIFKYYAMGWYRHSPGKVRELVAAITGGVSTNYADSVKGRFTISRDNAKNTVYLQMNSLKPEDTAVYYCAAAITPSYTGSEYDYWGQGTQVTVSS”, the entry is “low polyreactivity”; as for “QVQRVESGGGLVQAGGSLRLSCAASGYTSQVKDMGWYRQAPGKERELVAAISSTGDRTYYADSVKGRFTISRDNAKNTVYLQMNSLKPEDTAVYYCNADLTSYYEEDERNDDDYWGQGTQVTVSS”, “low polyreactivity”. For “QVQRVESGGGLVQAGGSLRLSCGASGSTFWAYVMGWYRPAPGKERELVAAMSSGGTTNYADSVKGRFTISRDNAKNTVYLQMNSLKPEDTAVYYCAAGRPGELDYWGQGTQVTVSS” the value was “low polyreactivity”; for “QVQRVESGGGLVQAGGSLRLSSAASGRIFWDNAMGGYRQEPGKERELVAAISDSVVITYYADSVKGRFTITRDNAKNTVYLQMNSLKPEDTAVYYCNVTGGPYDFTRWSEFDHWGQGTQETVSS”, “low polyreactivity”.

Take “QVQRVESGGGLVQAGGSLRLSSAASGRTSRYAMGWYRQAPGKERELVAAISRSGGSTHNADSVKGRFTISRDNAKNNVYLHMNSLKPEDTAVYSCNAQQGRYWSAKGYDYWGQGTQVTVSS”: the “polyreactivity (PSR sort gate)” value is reported as “high polyreactivity”. Consider “QVQRVESGGGLVQAGGSLRLTCAASGITFFVYAMGCYRQAPGKERELVATINWSGASTYYADSVKGRFTISRDNAKNSVYLQMNSLKPEDTAVYYCAKDGHYPLVYLAFDYWGQGTQVTVSS”, for which the “polyreactivity (PSR sort gate)” value was “low polyreactivity”. With “QVQRVESGGGLVQAGGSLRLTCAASGLTFRTYAMGWYRQAPGKERELVAAISGTGGTTYYADSVKGRFTISRDNAKNTVYLQMNSLKPEDTAVYYCNKRWRRPYPYDYWGQGSQVTVSS”, the “polyreactivity (PSR sort gate)” value is “high polyreactivity”. “QVQRVESGGGLVQAGGSLRLTCAASGSIFRSYAMGWYRQAPGKERELVAAISSSSGSTYYADSVKGRFTISRDKAKYTVYLQMNSLKPEDTAVYYCAARYRIGNNGYEYWGQGTQVTVSS”: the “polyreactivity (PSR sort gate)” value is “low polyreactivity”.

Consider “QVQRVESGGGLVQAGGSLRLTCAASGYTSLWYGMGWSRQAPGKERDLVAAISSSGNTNYADSVKGRFTISRDNAKNTVYLQMNSLKPEDTAVYYCAVELKQVTPGLGYITLDYWGQGTQVTVSS”, for which the “polyreactivity (PSR sort gate)” value was “low polyreactivity”. As to “QVQRVESGGGLVQAGGSLSLSCAASGRTCGVYAMGWYRQAPGKERELGASSSRSAGSTYYADSVKGRFTISRDNAKNTVYFQMNSLKTEDTAVYYCAAVYKRGMDYWGQGTQVTVSS”, the “polyreactivity (PSR sort gate)” value is “high polyreactivity”. As for “QVQRVESGGGLVQAGRSLRLSCAASGTTFGRNAMGWYRQAPGIERELVAAINSGGGTYYADSVKGRFTISRDNAKNTVYLQMNSLKPEDTSVFYCAAARRYGNYDYWGQGTQLTVSS”, the entry is “low polyreactivity”.

Consider “QVQRVESGGGLVQAVGRLRLSCAASGSTFYTYTMGWYRPARGKERELVAAITWSGGSTYYADSVKGRFTISRDNAKNTVYLQMNRLKPEDTAVYYCNADQDYQGARPSGMDYWGLGTQVTVSS”, for which the “polyreactivity (PSR sort gate)” value was “low polyreactivity”. For “QVQRVESGGGLVQEGGSLRLSCAASGRIFGYYAMGWYRQAPGKERELVAVITGNGSTYYADSVKGRFTISRDNAKNTVYLQRNSLNPEETAVYYCAARYVFVVRGRTVPRYYYWGQGTQVTVSS” the value was “high polyreactivity”.
